Reference: publication PMC11702068, “NEK8 promotes the progression of gastric cancer by reprogramming asparagine metabolism” (Molecular Medicine, 2025)

B1: Flag-ASNS (wild type) [not stated] / NEK8 (partner in the co-immunoprecipitation with ASNS-WT and ASNS-S349A) [not stated] (parent)
chain 1: MCGIWALFGSDDCLSVQCLSAMKIAHRGPDAFRFENVNGYTNCCFGFHRLAVVDPLFGMQPIRVKKYPYLWLCYNGEIYNHKKMQQHFEFEYQTKVDGEIILHLYDKGGIEQTICMLDGVFAFVLLDTANKKVFLGRDTYGVRPLFKAMTEDGFLAVCSEAKGLVTLKHSATPFLKVEPFLPGHYEVLDLKPNGKVASVEMVKYHHCRDVPLHALYDNVEKLFPGFEIETVKNNLRILFNNAVKKRLMTDRRIGCLLSGGLDSSLVAATLLKQLKEAQVQYPLQTFAIGMEDSPDLLAARKVADHIGSEHYEVLFNSEEGIQALDEVIFSLETYDITTVRASVGMYLISKYIRKNTDSVVIFSGEGSDELTQGYIYFHKAPSPEKAEEESERLLRELYLFDVLRADRTTAAHGLELRVPFLDHRFSSYYLSLPPEMRIPKNGIEKHLLRETFEDSNLIPKEILWRPKEAFSDGITSVKNSWFKILQEYVEHQVDDAMMANAAQKFPFNTPKTKEGYYYRQVFERHYPGRADWLSHYWMPKWINATDPSARTLTHYKSAVKA
chain 2: MEKYERIRVVGRGAFGIVHLCLRKADQKLVIIKQIPVEQMTKEERQAAQNECQVLKLLNHPNVIEYYENFLEDKALMIAMEYAPGGTLAEFIQKRCNSLLEEETILHFFVQILLALHHVHTHLILHRDLKTQNILLDKHRMVVKIGDFGISKILSSKSKAYTVVGTPCYISPELCEGKPYNQKSDIWALGCVLYELASLKRAFEAANLPALVLKIMSGTFAPISDRYSPELRQLVLSLLSLEPAQRPPLSHIMAQPLCIRALLNLHTDVGSVRMRRAEKSVAPSNTGSRTTSVRCRGIPRGPVRPAIPPPLSSVYAWGGGLGTPLRLPMLNTEVVQVAAGRTQKAGVTRSGRLILWEAPPLGAGGGSLLPGAVEQPQPQFISRFLEGQSGVTIKHVACGDFFTACLTDRGIIMTFGSGSNGCLGHGSLTDISQPTIVEALLGYEMVQVACGASHVLALSTERELFAWGRGDSGRLGLGTRESHSCPQQVPMPPGQEAQRVVCGIDSSMILTVPGQALACGSNRFNKLGLDHLSLGEEPVPHQQVEEALSFTLLGSAPLDQEPLLSIDLGTAHSAAVTASGDCYTFGSNQHGQLGTNTRRGSRAPCKVQGLEGIKMAMVACGDAFTVAIGAESEVYSWGKGARGRLGRRDEDAGLPRPVQLDETHPYTVTSVSCCHGNTLLAVRSVTDEPVPP

Variants of: B1
Assay: co-immunoprecipitation (IP: ASNS, IB: NEK8), band intensity quantified
Conditions: parent: 4.9, read off a plot

| response | Variant |
| --- | --- |
| 3.1 | chain 1 MCGIWALFGSDDCLSVQCLSAMKIAHRGPDAFRFENVNGYTNCCFGFHRLAVVDPLFGMQPIRVKKYPYLWLCYNGEIYNHKKMQQHFEFEYQTKVDGEIILHLYDKGGIEQTICMLDGVFAFVLLDTANKKVFLGRDTYGVRPLFKAMTEDGFLAVCSEAKGLVTLKHSATPFLKVEPFLPGHYEVLDLKPNGKVASVEMVKYHHCRDVPLHALYDNVEKLFPGFEIETVKNNLRILFNNAVKKRLMTDRRIGCLLSGGLDSSLVAATLLKQLKEAQVQYPLQTFAIGMEDSPDLLAARKVADHIGSEHYEVLFNSEEGIQALDEVIFSLETYDITTVRASVGMYLIAKYIRKNTDSVVIFSGEGSDELTQGYIYFHKAPSPEKAEEESERLLRELYLFDVLRADRTTAAHGLELRVPFLDHRFSSYYLSLPPEMRIPKNGIEKHLLRETFEDSNLIPKEILWRPKEAFSDGITSVKNSWFKILQEYVEHQVDDAMMANAAQKFPFNTPKTKEGYYYRQVFERHYPGRADWLSHYWMPKWINATDPSARTLTHYKSAVKA [chain 1 S349A] |

Variants of: B1
Assay: co-immunoprecipitation (IP: Flag-ASNS, IB: NEK8), band intensity quantified
Conditions: parent: 5.4, read off a plot

| response | Variant |
| --- | --- |
| 2.7 | chain 1 MCGIWALFGSDDCLSVQCLSAMKIAHRGPDAFRFENVNGYTNCCFGFHRLAVVDPLFGMQPIRVKKYPYLWLCYNGEIYNHKKMQQHFEFEYQTKVDGEIILHLYDKGGIEQTICMLDGVFAFVLLDTANKKVFLGRDTYGVRPLFKAMTEDGFLAVCSEAKGLVTLKHSATPFLKVEPFLPGHYEVLDLKPNGKVASVEMVKYHHCRDVPLHALYDNVEKLFPGFEIETVKNNLRILFNNAVKKRLMTDRRIGCLLSGGLDSSLVAATLLKQLKEAQVQYPLQTFAIGMEDSPDLLAARKVADHIGSEHYEVLFNSEEGIQALDEVIFSLETYDITTVRASVGMYLIAKYIRKNTDSVVIFSGEGSDELTQGYIYFHKAPSPEKAEEESERLLRELYLFDVLRADRTTAAHGLELRVPFLDHRFSSYYLSLPPEMRIPKNGIEKHLLRETFEDSNLIPKEILWRPKEAFSDGITSVKNSWFKILQEYVEHQVDDAMMANAAQKFPFNTPKTKEGYYYRQVFERHYPGRADWLSHYWMPKWINATDPSARTLTHYKSAVKA [chain 1 S349A] |
